Laboratory results reported in patent publication US20130225503A1, “TEX14 PEPTIDES AS NOVEL ANTITUMOR AGENTS” (Baylor Licnensing Group, priority 2009, published 2013).

T1: full-length mouse TEX14 (mouse, UniProt Q7M6U3 1-1450)
T1 construct: whole, on cells; In the yeast two-hybrid assay it stood as a fusion with a GAL4 domain (pGBKT7 bait or pGADT7 prey vector)
T1 sequence (looked up): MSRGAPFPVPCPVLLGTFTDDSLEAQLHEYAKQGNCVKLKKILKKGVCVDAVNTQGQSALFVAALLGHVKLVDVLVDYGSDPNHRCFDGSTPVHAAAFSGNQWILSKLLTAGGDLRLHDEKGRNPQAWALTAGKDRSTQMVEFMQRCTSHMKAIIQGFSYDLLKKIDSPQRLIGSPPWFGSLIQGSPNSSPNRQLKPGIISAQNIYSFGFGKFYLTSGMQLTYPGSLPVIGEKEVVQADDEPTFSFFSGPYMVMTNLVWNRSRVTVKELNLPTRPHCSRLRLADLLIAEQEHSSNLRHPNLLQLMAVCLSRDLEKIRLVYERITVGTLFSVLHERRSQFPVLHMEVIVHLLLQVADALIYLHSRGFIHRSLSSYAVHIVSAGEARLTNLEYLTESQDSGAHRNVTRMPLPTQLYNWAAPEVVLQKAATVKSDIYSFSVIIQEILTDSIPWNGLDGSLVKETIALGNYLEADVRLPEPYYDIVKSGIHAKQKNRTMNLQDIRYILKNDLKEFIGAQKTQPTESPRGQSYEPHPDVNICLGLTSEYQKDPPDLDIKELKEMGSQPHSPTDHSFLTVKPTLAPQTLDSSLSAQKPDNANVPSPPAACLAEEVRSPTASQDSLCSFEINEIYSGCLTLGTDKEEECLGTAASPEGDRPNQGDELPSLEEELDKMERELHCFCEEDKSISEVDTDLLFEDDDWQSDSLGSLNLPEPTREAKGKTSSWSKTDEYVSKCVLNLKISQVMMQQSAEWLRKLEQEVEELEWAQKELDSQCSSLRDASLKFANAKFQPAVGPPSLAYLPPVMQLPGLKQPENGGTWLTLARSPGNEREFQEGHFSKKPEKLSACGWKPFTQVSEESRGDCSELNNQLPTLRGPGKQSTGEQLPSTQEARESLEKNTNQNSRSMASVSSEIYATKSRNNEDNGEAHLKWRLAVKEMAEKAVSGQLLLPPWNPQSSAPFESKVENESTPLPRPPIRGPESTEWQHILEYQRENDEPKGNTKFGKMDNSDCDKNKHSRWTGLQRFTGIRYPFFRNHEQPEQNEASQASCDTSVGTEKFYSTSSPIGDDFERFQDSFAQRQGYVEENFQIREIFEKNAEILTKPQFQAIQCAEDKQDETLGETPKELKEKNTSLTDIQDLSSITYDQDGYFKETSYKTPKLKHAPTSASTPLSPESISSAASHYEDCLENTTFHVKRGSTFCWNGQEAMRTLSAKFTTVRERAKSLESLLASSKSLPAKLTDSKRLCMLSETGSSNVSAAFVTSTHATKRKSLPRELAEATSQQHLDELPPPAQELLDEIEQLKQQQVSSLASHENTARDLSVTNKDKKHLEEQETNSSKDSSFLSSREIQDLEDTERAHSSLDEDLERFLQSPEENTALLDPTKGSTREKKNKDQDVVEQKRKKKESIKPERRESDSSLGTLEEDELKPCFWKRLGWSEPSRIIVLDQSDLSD


Target: T1, full-length mouse TEX14
Test: yeast two-hybrid, full-length proteins, oxygen biosensor and selection plates
Description: (A) Immunoprecipitation (IP) of FLAG-TEX14 and/or MYC-CEP55 from HEK293T cells, followed by Western blot analysis with the antibodies as shown. Immunoprecipitation of protein G (lanes G) is the control. (B) Yeast two-hybrid analyses using vectors encoding full-length mouse TEX14, MKLP1, CEP55, and positive and negative controls. The relative ratios of TEX14-TEX14, TEX14-MKLP1, and TEX14-CEP55 interactions were determined by using an oxygen-biosensor system. (C) Yeast two-hybrid interactions of mouse and human full-length TEX14 and CEP55. (a) Yeast were stably transformed with vectors and plated for yeast two-hybrid analysis as depicted. SV40 T antigen with p53 and SV40 T antigen with lamin C were used as positive and negative controls, respectively. (b) Interactions between the two-hybrid proteins are evident by colony growth and blue color on selection plates.
Protein-protein interactions were evaluated by using the Matchmaker Two-Hybrid System 3 (Clontech) as described previously (10). Mouse full-length TEX14 and MLKP1 were previously subcloned into the Matchmaker GAL4 two-hybrid pGBKT7 and pGADT7 vectors (10). The constructs of full-length mouse and human CEP55, human TEX14, truncated mouse CEP55-C1, and truncated mouse TEX14-T1, T2, T1[…]T2, T3, T4, and T4-C were made by using the Matchmaker GAL4 two-hybrid pGBKT7 bait vector and pGADT7 prey vectors. Some Y2H interactions were examined with an oxygen biosensor assay (Clontech PT3584-1) that measured the fluorescence emitted by an oxygen-sensing platform that detects GAL4.
Since both CEP55 and TEX14 interact with MKLP1 (10, 22), it was determined whether CEP55 and TEX14 are components of the intercellular bridge as direct or indirect interactors. The inventors first overexpressed full-length FLAG-TEX14 and MYC-CEP55 constructs in HEK293T cells (FIG. 2A). […] Likewise, when the inventors immunoprecipitate with anti-MYC antibody, they immunoprecipitate both MYC-CEP55 and FLAG-TEX14.

| binding result | Binder |
| --- | --- |
| binds | full-length mouse MKLP1 (other, UniProt E9Q5G3 1-953, looked up, whole, on cells; Yeast two-hybrid fusion with a GAL4 domain; also called MLKP1) MKSAKAKTVRKPVIKKGSQTNLKDPVGVYCRVRPLSFPDQECCVEVINSTTLQLHTPEGYRLNRNGDYKETQYSFKRVFGTHTTQKELFDVVANPLVDDLIHGKNGLLFTYGVTGSGKTYTMTGSPGSGGLLPRCLNMIFNSIGSFQAKRYVFKSNDRNSMEIQCEVDALLERQKREALPIPKTPSSKRQADPEFADMINVQEFCKAEEVDEDSVYGVFVSYIEIYNNYIYDLLEEVQFDPIKPKLPQSKTLREDKNHNMYVAGCTEVEVKSTEEAFEVFWRGQKKRRIANTHLNRESSRSHSVFSIKLVQAPLDADGDNVLQEKEQITISQLSLVDLAGSERTNRTKAEGNRLREAGNINQSLMTLRTCMEVLRENQTYGTNKMVPYRDSKLTHLFKNYFDGEGKVRMIVCVNPKAEDYEESLQVMRFAEVTQEVEVARPVDKVICGLTPGRRYRNLPRGGPVGDEPLVPEVILQSFPPLPPCKLLDINDEETLPKLADTLEKRHHLRQLMTEDLNKKCLAFKALLKEFDNSLSNKENYVQEKLNEREKVISGQKLEIERLEKKNKTLEYKIEILEKTTTIYEEDKRNLQQELESQNQKLQRQFSDKRRLEARLQGMVTETSMKWQKECERRVAATQLEMQNKLWVKDEKLKQLKAIVTEPKPEKPERPSRERDREKIIPRSVSPSPLPLSSNNIAQISNGQQLMSQPQLHRRSNSCSSISVASCISEWEQKLSPFSTPVNVTSLARHRQQEPGQSKTCIVSDRRRGMCWTEGREMVPTFSSEIGVEEDHCRRNTPIPVRHRRSRSAGSRWVDHKPASNVQTETVMQPHVPHAITVSVANEKALAKCEKYMLTHQELASDGEIQTKVIKGDVYKTRGGGQSVQFTDIETLKQELPTGSRKRRSSTLAPAQPDGTESEWTDVETRCSVAVEMRAGSQLGPGYQHHAQPKRKKP |
| binds | full-length mouse CEP55 (other, UniProt Q8BT07 1-462, looked up, whole, on cells; Yeast two-hybrid fusion with a GAL4 domain (pGBKT7 or pGADT7)) MSSRSPKDLIKSKWGSRPSSSKSDTALEKFKGEIAAFKTSLDEITSGKGKMAEKGRSRLLEKIQVLEAEREKNVYYLLEKDKEIQRLKDHLRSRYSSSSLFEQLEEKTKECEKKQQLLESLSKETDVLKNQLSATTKRLSELESKASTLHLSQSMPANCFNSSMNSIHEKEMQLKDALEKNQQWLVYDQQREAYVKGLLAKIFELEKRTETAAASLTQQMKKIESEGYLQVEKQKYDHLLENAKKDLEVERQAVTQLRLELDEFRRKYEEARKEVEDLNQLLSSQRKADIQHLEEDKQKTERIQKLREESSIFKGKLEEERKRSEELLSQVRILYDSLLKHQEEQARVALLEQQMQACTLDFENEKLDRQNMQHQLYVILKELRKAKSQITQLESLKQLHGFTITEQPFPLQREPESRVKATSPKSPSAALNDSLVECPKCSVQYPATEHRDLLVHVEYCMK |
